Data published in PMC4979544 (Structure (London, England : 1993), 2016).
Ends that are not written are not given here.

Key:
Experiment in all cases: fluorescence polarisation
[1] = target: T1, FRFVQELASKEVC-fluorescein peptide
T1 peptide: FRFVQELASKEVC(fluorescein‑5‑maleimide)

[2] = target: T2, YRFVQELASKEVC-fluorescein peptide
T2 peptide: YRFVQELASKEVC(fluorescein‑5‑maleimide)

[3] = target: T3, WRFVQELASKEVC-fluorescein peptide
T3 peptide: WRFVQELASKEVC(fluorescein‑5‑maleimide)

A. tumefaciens ClpS2 = target: T4, A. tumefaciens ClpS2 (A. tumefaciens, UniProt Q8UD95 1-103, 35S-labeled in the peptide blots only)
T4 sequence (looked up): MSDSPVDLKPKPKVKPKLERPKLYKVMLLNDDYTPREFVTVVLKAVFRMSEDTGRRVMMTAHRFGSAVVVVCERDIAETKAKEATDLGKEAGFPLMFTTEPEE

Binder	ΔΔG against parent ClpS2 [1] [kcal/mol]	ΔΔG against parent ClpS2 [2] [kcal/mol]	ΔΔG against parent ClpS2 [3] [kcal/mol]	Kd (A. tumefaciens ClpS2) [µM]
A. tumefaciens ClpS2 L28A (natural protein) MSDSPVDLKPKPKVKPKLERPKLYKVMALNDDYTPREFVTVVLKAVFRMSEDTGRRVMMTAHRFGSAVVVVCERDIAETKAKEATDLGKEAGFPLMFTTEPEE	0.91	-0.26	0.3	
A. tumefaciens ClpS2 R36M (natural protein) MSDSPVDLKPKPKVKPKLERPKLYKVMLLNDDYTPMEFVTVVLKAVFRMSEDTGRRVMMTAHRFGSAVVVVCERDIAETKAKEATDLGKEAGFPLMFTTEPEE	-0.17	-0.74	-0.3	
LRFVQELASKEVC(fluorescein‑5‑maleimide) [LRFVQELASKEVC-fluorescein peptide]				> 800
